How the values were obtained:
[1] = target: Kluyveromyces lactis β-galactosidase mutant R116C/T270C (Kluyveromyces lactis) (UniProt P00723); test: AUC; sedimentation velocity, 0.2 mg/mL enzyme, 50 mM Tris-HCl, 150 mM NaCl, pH 7.4, 48 k rpm, c(s) distribution (SEDFIT); self-association, shares of monomer, dimer, trimer and tetramer
[2] = target: Kluyveromyces lactis β-galactosidase mutant R116C/T270C (Kluyveromyces lactis) (UniProt P00723); test: AUC; sedimentation velocity, 0.1 mg/mL enzyme, 50 mM Tris-HCl, 150 mM NaCl, pH 7.4, 48 k rpm, c(s) distribution (SEDFIT); self-association
[3] = target: Kluyveromyces lactis β-galactosidase mutant R116C/T270C/G818C (Kluyveromyces lactis) (UniProt P00723); test: AUC; sedimentation velocity, 0.2 mg/mL enzyme, 50 mM Tris-HCl, 150 mM NaCl, pH 7.4, 48 k rpm, c(s) distribution (SEDFIT); self-association, shares of monomer, dimer, trimer and tetramer
[4] = target: Kluyveromyces lactis β-galactosidase mutant R116C/T270C/G818C (Kluyveromyces lactis) (UniProt P00723); test: AUC; sedimentation velocity, 0.1 mg/mL enzyme, 50 mM Tris-HCl, 150 mM NaCl, pH 7.4, 48 k rpm, c(s) distribution (SEDFIT); self-association

percent of the protein as dimer [1]	percent of the protein as monomer [1]	percent of the protein as tetramer [1]	percent of the protein as trimer [1]	increase in monomeric forms at 0.1 mg/mL against 0.2 mg/mL [2]	percent of the protein as dimer [3]	percent of the protein as monomer [3]	percent of the protein as tetramer [3]	percent of the protein as trimer [3]	increase in monomeric forms at 0.1 mg/mL against 0.2 mg/mL [4]	Substance
20.9%	21.9%	49.3%	7.9%	0.8%						Kluyveromyces lactis β-galactosidase mutant R116C/T270C (from UniProt P00723 2-1025) (enzyme)
					57.2%	7.3%	23%	12.6%	2.1%	Kluyveromyces lactis β-galactosidase mutant R116C/T270C/G818C (from UniProt P00723 2-1025) (enzyme)

Reference: paper PMC5374532, “Rational mutagenesis by engineering disulphide bonds improves Kluyveromyces lactis beta-galactosidase for high-temperature industrial applications” (Scientific Reports, 2017)
